In patent US20110313230A1:

Columns and labels:
wild-type EGFR (human) [1] = target: wild-type EGFR (human) (UniProt P00533); assay: immunohistochemistry, glioblastoma pre-typed: EGFR amplified, no de2-7 EGFR expression
de2-7 EGFR (human) = de2-7 EGFR (human) (UniProt P00533); assay: immunohistochemistry, glioblastoma pre-typed: EGFR amplified, de2-7 EGFR expressed
wild-type EGFR (human) [2] = target: wild-type EGFR (human) (UniProt P00533); assay: Scatchard, 125I-528 on A431 cells

mAb528 (antibody)
percent of immunoreactive cells (wild-type EGFR (human) [1]): > 75% | percent of immunoreactive cells (de2-7 EGFR (human)): > 75% | receptors per cell (receptors per cell) (wild-type EGFR (human) [2]): 2e+06
